Laboratory results taken from publication PMC11931385, “Structural and functional analysis of cancer-associated missense variants in the retinoblastoma protein pocket domain” (The Journal of Biological Chemistry, 2025).
No end group written: not given here. TMR = tetramethyl rhodamine dye

Tests used:
Assay in all cases: fluorescence polarisation; 25 °C; unlabeled Rb^P titrated against 1.5 nM TMR-E2F1^TD or 7.5 nM TMR-E7^LxCxE; 25 mM Tris pH 8.0, 200 mM NaCl, 1 mM DTT, 0.1% Tween-20; 2 min incubation; quadratic fit; apparent Kd for the variants, Kd for WT
Conditions in all cases: both partners purified
Rb^P R621H = biological target: T1, Rb^P R621H (human, UniProt P06400 380-788, R621H)
T1 construct: also called variant 42
T1 sequence (looked up): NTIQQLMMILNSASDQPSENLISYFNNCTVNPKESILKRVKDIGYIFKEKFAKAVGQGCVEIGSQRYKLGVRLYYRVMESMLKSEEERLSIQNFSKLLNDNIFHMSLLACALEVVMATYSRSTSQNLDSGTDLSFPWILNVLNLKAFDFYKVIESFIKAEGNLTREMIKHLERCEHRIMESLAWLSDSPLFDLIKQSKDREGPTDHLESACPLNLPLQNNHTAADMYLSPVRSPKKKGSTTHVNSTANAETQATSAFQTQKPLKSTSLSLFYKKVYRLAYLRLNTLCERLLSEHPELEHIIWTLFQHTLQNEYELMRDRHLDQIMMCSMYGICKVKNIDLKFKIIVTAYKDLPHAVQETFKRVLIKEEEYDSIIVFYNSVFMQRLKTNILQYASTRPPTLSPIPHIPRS

Rb^P S751Y = biological target: T2, Rb^P S751Y (human, UniProt P06400 380-788, S751Y)
T2 construct: also called variant 72
T2 sequence (looked up): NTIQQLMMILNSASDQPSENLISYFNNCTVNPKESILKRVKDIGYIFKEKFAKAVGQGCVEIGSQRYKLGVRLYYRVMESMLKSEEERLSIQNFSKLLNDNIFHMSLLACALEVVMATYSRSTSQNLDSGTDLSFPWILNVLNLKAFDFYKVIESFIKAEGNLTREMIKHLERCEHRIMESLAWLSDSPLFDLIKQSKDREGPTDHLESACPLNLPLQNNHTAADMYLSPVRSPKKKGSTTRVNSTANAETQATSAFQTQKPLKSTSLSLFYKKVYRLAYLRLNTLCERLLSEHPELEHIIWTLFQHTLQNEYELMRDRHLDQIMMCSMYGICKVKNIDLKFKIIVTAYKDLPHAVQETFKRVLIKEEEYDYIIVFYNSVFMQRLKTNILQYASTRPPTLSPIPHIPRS

Rb^P M546I = biological target: T3, Rb^P M546I (human, UniProt P06400 380-788, M546I)
T3 construct: also called variant 25
T3 sequence (looked up): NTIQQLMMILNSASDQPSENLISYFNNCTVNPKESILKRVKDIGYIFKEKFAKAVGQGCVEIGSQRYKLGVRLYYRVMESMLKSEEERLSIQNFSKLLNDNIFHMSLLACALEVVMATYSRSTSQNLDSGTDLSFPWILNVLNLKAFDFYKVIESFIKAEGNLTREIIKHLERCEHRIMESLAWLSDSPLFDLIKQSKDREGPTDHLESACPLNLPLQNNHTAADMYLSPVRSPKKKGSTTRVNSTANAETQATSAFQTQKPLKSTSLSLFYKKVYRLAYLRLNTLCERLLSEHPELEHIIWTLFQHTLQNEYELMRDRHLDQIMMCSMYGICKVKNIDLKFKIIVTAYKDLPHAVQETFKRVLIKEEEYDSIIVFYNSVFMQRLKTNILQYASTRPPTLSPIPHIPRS

Rb^P R621C = biological target: T4, Rb^P R621C (human, UniProt P06400 380-788, R621C)
T4 construct: also called variant 41
T4 sequence (looked up): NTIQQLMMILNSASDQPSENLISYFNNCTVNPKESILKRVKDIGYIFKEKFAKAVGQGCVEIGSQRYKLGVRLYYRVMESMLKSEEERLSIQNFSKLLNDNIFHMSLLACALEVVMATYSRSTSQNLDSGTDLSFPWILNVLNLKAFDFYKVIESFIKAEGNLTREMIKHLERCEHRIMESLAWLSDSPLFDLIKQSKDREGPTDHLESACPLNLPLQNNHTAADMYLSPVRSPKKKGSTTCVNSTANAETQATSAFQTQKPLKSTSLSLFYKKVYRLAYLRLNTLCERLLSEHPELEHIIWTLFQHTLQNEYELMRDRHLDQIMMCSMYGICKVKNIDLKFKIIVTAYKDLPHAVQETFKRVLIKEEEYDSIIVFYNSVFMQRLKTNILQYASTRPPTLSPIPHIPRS

Rb^P R451S = biological target: T5, Rb^P R451S (human, UniProt P06400 380-788, R451S)
T5 construct: also called variant 7
T5 sequence (looked up): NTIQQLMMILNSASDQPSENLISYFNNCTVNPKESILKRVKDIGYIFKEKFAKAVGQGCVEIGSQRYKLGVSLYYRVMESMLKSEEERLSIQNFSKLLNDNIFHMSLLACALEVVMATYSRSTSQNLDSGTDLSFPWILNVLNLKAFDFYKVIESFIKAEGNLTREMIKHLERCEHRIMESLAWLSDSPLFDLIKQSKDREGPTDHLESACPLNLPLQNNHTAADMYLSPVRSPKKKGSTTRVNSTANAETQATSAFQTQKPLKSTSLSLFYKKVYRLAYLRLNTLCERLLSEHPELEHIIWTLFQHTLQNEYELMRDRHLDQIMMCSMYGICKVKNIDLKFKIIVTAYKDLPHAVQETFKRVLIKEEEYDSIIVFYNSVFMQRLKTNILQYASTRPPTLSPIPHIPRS

B1: TMR-E2F1^TD, peptide of the E2F1 transactivation domain (peptide)
peptide: {TMR}-GEGIRDLFDCDFGDLTPLD
notes: also called E2F^TD; source: synthetic peptide, bought: GenScript
With B1 the Kd (Rb^P R621H) was 30 nM, the Kd (Rb^P S751Y) was 33 nM and the Kd (Rb^P M546I) was 13 nM. The Kd (Rb^P R621C) was 22 nM and the Kd (Rb^P R451S) was 26 nM.

B2: TMR-E7^LxCxE, LxCxE peptide of the E7 oncoprotein from HPV (peptide)
peptide: DLYCYEQLN
modifications: also: TMR label, position not given here
notes: source: synthetic peptide, bought: GenScript
For B2, the Kd (Rb^P R621H) was 10 nM, the Kd (Rb^P S751Y) was 127 nM and the Kd (Rb^P M546I) was 7 nM. The Kd (Rb^P R621C) was 12 nM and the Kd (Rb^P R451S) was 9 nM.
